Measurements published in the supplement of paper PMC10724198.
± gives the standard deviation of the averaged measurements.

tested on: Saccharomyces cerevisiae; assay: protein stability index of tFT-peptide fusion (C-terminal peptide) (PSI (0-1 scale)); higher = more stable (slower turnover); conditions: genetic background: wild type; temperature: 30 C
Experimental: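 Multiplexed protein stability (MPS) profiling in S. cerevisiae. Random 12-aa peptides (tFT-X12 library) are fused to the C-terminus of a sfGFP-mCherry tandem fluorescent timer, after mCherry and a GGGS linker. Cells are FACS-sorted into 8 mCherry/sfGFP bins and deep-sequenced. The protein stability index (PSI) is the read-weighted bin average, scaled from 0 (unstable) to 1 (stable). Only peptides with >10 reads are reported; cells were grown at 30 °C in SC-His with glucose.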
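Also: PSI is a weighted mean of sequencing reads over stability bins, variants kept only with over 10 reads, mCherry proximal and sfGFP distal, peptide attached via GGGS linker.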

| Sequence | protein stability index |
| --- | --- |
| HPLFCPPPPPLA | 0.708 ± 0.036 |
| HPLPPPPRSPPS | 0.732 ± 0.011 |
| HPNGVMIGKNPT | 0.702 ± 0.023 |
| HPNKPTYLPSPY | 0.768 ± 0.1 |
| HPPAPSPPETSL | 0.69756 ± 0.0005 |
| HPPPFRLPPAPP | 0.639 ± 0.0072 |
| HPPPSLAASPPP | 0.544 ± 0.017 |
| HPPPSNYWPSSA | 0.658 ± 0.084 |
| HPPTLCPLSRRH | 0.659 ± 0.047 |
| HPRRLRPAHTPP | 0.725 ± 0.0075 |
| HPSFPPHRSPAS | 0.78 ± 0.023 |
| HPSRWPSPRAIL | 0.684 ± 0.051 |
| HPTRPHLPPFAP | 0.681 ± 0.066 |
| HQKQCRSNRHRG | 0.657 ± 0.05 |
| HRAFAAGFGVWG | 0.669 ± 0.067 |
| HRCPSPPWFHPS | 0.752 ± 0.071 |
| HRILILSGLRAG | 0.626 ± 0.041 |
| HRPSPLPPRVPL | 0.673 ± 0.033 |
| HRRASYVLSPLS | 0.7413 ± 0.0073 |
| HRRGRVAQFAIS | 0.644 ± 0.029 |
| HRVNKKNCEEKT | 0.631 ± 0.053 |
| HRVVAATKSPSA | 0.727 ± 0.064 |
| HRYSGSTFSAVL | 0.728 ± 0.11 |
| HSLRPPPRHQQK | 0.689 ± 0.02 |
| HSNPPPRRHPTI | 0.756 ± 0.068 |
| HSQPPRRPSTNP | 0.792 ± 0.033 |

| Sequence | protein stability index |
| --- | --- |
| HSSLPQPRELRT | 0.674 ± 0.021 |
| HSSPHFTTTKTP | 0.7081 ± 0.0016 |
| HSVPSCPKFSII | 0.66732 ± 0.00044 |
| HTDSKVVILFVP | 0.592 ± 0.014 |
| HTGLRASSPNST | 0.753 ± 0.052 |
| HTPAPLPPPLHP | 0.691 ± 0.011 |
| HTPPAPLPSSPH | 0.749 ± 0.0079 |
| HTPPMVGMLCLG | 0.6 ± 0.032 |
| HTSFQTNASPKD | 0.727 ± 0.031 |
| HVDSLPRPLLPS | 0.716 ± 0.056 |
| HVLCRAFLFLLP | 0.642 ± 0.016 |
| HVLHKPYRPGRP | 0.601 ± 0.0069 |
| HVPHFCLSPTII | 0.758 ± 0.14 |
| HVPRFLPFLSSL | 0.739 ± 0.033 |
| HVVLPPRYCISR | 0.696 ± 0.015 |
| HWRRGGRSGGDR | 0.71 ± 0.033 |
| HWTLRRGTGIEL | 0.6693 ± 0.0061 |
| HYEIFSCDPGCD | 0.746 ± 0.024 |
| HYLHRDSLLRWL | 0.6182 ± 0.0033 |
| HYRLPLPPASPA | 0.701 ± 0.052 |
| HYSMAPIPHDNR | 0.711 ± 0.074 |
| IAASCGPRYKDS | 0.632 ± 0.077 |
| IADGSEIVRSLI | 0.71 ± 0.038 |
| IAEWVRLIVGEG | 0.671 ± 0.015 |
| IAVSWIRGGRIM | 0.849 ± 0.13 |
| ICCASALPFDIS | 0.784 ± 0.19 |

| Sequence | protein stability index |
| --- | --- |
| IDVRRAIIPGLG | 0.595 ± 0.011 |
| IESLDRRGAEQI | 0.747 ± 0.045 |
| IFIPRFDLPSFP | 0.788 ± 0.16 |
| IFIVINGHFAGS | 0.66 ± 0.06 |
| IFKSLEKKTKRV | 0.766 ± 0.0086 |
| IFMHPRATLPAR | 0.73 ± 0.076 |
| IFRSLDFVFYFT | 0.646 ± 0.097 |
| IFSSFCPASFFL | 0.757 ± 0.031 |
| IGFNVEIRKGMG | 0.605 ± 0.082 |
| IGGRRGVTGIFV | 0.699 ± 0.064 |
| IGIGVAGERLGV | 0.612 ± 0.059 |
| IGIIFTKCGGRT | 0.688 ± 0.037 |
| IGKWIKKKKQKG | 0.631 ± 0.023 |
| IGLFWSGFFYGV | 0.743 ± 0.038 |
| IGLRCPPPKPYA | 0.696 ± 0.035 |
| IGLRVLSNSYEV | 0.694 ± 0.031 |
| IGRRGINGLWGG | 0.627 ± 0.042 |
| IGRVFGMENIKM | 0.669 ± 0.014 |
| IGTGLVLFSPCY | 0.69 ± 0.022 |
| IGTKKVINDKLL | 0.675 ± 0.028 |
| IGVRSPSTHIVN | 0.72 ± 0.018 |
| IGWCRLRDRLVS | 0.556 ± 0.048 |
| IHRLPPSLFPLL | 0.776 ± 0.12 |
| IIKDITNRGYAW | 0.724 ± 0.073 |
| IIKKKKNKARDI | 0.734 ± 0.067 |
| IILHLTRPGLAL | 0.673 ± 0.013 |

| Sequence | protein stability index |
| --- | --- |
| IILVVLSRLYVI | 0.5644 ± 0.003 |
| IIPQSCTSGGHT | 0.711 ± 0.061 |
| IIRKYKARKKNK | 0.688 ± 0.041 |
| IKIKKKKKRNKR | 0.685 ± 0.057 |
| IKKKNQKHKKKN | 0.7114 ± 0.0029 |
| IKKKTNYMNEKI | 0.661 ± 0.0096 |
| IKKQTKTKKKEF | 0.65 ± 0.058 |
| IKKRTSNRENKD | 0.7 ± 0.025 |
| IKKSRSLRIGMN | 0.584 ± 0.04 |
| IKNENKKKKNKK | 0.699 ± 0.024 |
| IKRKKKKKKKRD | 0.6558 ± 0.0015 |
| IKTKKKKKKKRD | 0.686 ± 0.0099 |
| IKTVSDFLIVKL | 0.6998 ± 0.0055 |
| ILCFSLESPRYH | 0.6991 ± 0.0022 |
| ILCLPFSVSSPS | 0.61579 ± 0.00015 |
| ILCPSPAPTSFP | 0.6682 ± 0.0061 |
| ILLSVAMNLRKH | 0.571 ± 0.037 |
| ILNNSDRAYTIQ | 0.731 ± 0.04 |
| ILPFYAEGQLKF | 0.649 ± 0.05 |
| ILSASARPPRPA | 0.701 ± 0.011 |
| ILSGIGNGSGSE | 0.72 ± 0.06 |
| ILSPDRTHANET | 0.665 ± 0.083 |
| ILSPLRHPEPTR | 0.70614 ± 9.6e-05 |
| ILVAPAYYCWKV | 0.642 ± 0.045 |
| ILWVSPFFFSLD | 0.699 ± 0.064 |
| INLVKRQTVKPP | 0.611 ± 0.076 |

| Sequence | protein stability index |
| --- | --- |
| INYSNQNKINRW | 0.6294 ± 0.00076 |
| IPGHRHTKRIFG | 0.641 ± 0.012 |
| IPPPLPPRAPLP | 0.672 ± 0.057 |
| IPRERPAEHYGG | 0.6473 ± 0.0018 |
| IPSPYPPPAPLH | 0.666 ± 0.011 |
| IPSRALSCLLPC | 0.66 ± 0.053 |
| IPSRGVQIPSWV | 0.63 ± 0.03 |
| IQAGHLYPESLV | 0.708 ± 0.056 |
| IQANLPLLTNQE | 0.6631 ± 0.0017 |
| IQDVGLKRLARV | 0.675 ± 0.061 |
| IQLQSNGLYSKK | 0.665 ± 0.065 |
| IQLRPFLSSPCR | 0.609 ± 0.035 |
| IQPDVILLTRFV | 0.6592 ± 0.0033 |
| IQRIPSGSGRVR | 0.736 ± 0.058 |
| IREQGQSLCKST | 0.603 ± 0.029 |
| IRETTYSRPFQL | 0.695 ± 0.05 |
| IRGGSRLPFYSS | 0.731 ± 0.013 |
| IRKDRGYETGKR | 0.6746 ± 0.0043 |
| IRLQKEGIKKIL | 0.699 ± 0.019 |
| IRPDLWYGLAVV | 0.59 ± 0.023 |
| IRPSGVVPPRAG | 0.65 ± 0.048 |
| IRPSNLRPPSYL | 0.682 ± 0.022 |
| IRQITVTICRGR | 0.639 ± 0.067 |
| IRREETKRKRNL | 0.755 ± 0.044 |
| IRRNRGLKWNVN | 0.613 ± 0.068 |
| IRRRQKYPKKKS | 0.6803 ± 0.0059 |

| Sequence | protein stability index |
| --- | --- |
| IRRTNRKETRKE | 0.686 ± 0.042 |
| IRSLRWVRRESV | 0.706 ± 0.1 |
| ISDRKARSDKNK | 0.656 ± 0.071 |
| ISILPDSIGQGA | 0.687 ± 0.055 |
| ISLCSVARLGFA | 0.704 ± 0.021 |
| ISSRSMGGCWHA | 0.673 ± 0.023 |
| ISVAHIPPVYHS | 0.643 ± 0.038 |
| ISVEELKSIKKK | 0.6296 ± 0.0019 |
| ISVPNPTRPDHP | 0.665 ± 0.063 |
| ISVSLWFRGRYY | 0.599 ± 0.034 |
| ISVSTDSPVRTW | 0.639 ± 0.023 |
| ITEYKIKLKNKE | 0.671 ± 0.023 |
| ITIRGLTGRFRQ | 0.713 ± 0.17 |
| ITKELHEGEYLY | 0.727 ± 0.0086 |
| ITKTGAAEHASL | 0.63 ± 0.037 |
| ITLSLGRQQIEL | 0.654 ± 0.013 |
| ITMYAPEVDKRR | 0.709 ± 0.017 |
| ITSSPSSPPAPP | 0.634 ± 0.0096 |
| IVEKAVAKGIKE | 0.6767 ± 0.005 |
| IVFYWLAHRPCA | 0.6297 ± 0.0059 |
| IVGGDSVSALRG | 0.643 ± 0.022 |
| IVGLLGICVGRC | 0.57 ± 0.024 |
| IVLGGPAWPVAA | 0.613 ± 0.034 |
| IVLLNLTHVRSK | 0.647 ± 0.024 |
| IVRTDTKPYEQS | 0.587 ± 0.013 |
